B1: PIP5K1C peptide 640-655 (Phosphatidylinositol 4-phosphate 5-kinase type-1 gamma), 16-mer library wild type / TLN1 PTB (TLN1 Phosphotyrosine-binding (PTB) domain, residues 309-401) (parent)
chain 1: FPTDERSWVYSPLHYS
chain 2: GVSFFLVKEKMKGKNKLVPRLLGITKECVMRVDEKTKEVIQEWNLTNIKRWAASPKSFTLDFGDYQDGYYSVQTTEGEQIAQLIAGYIDIILK

Variants of: B1
Experiment: proteomic peptide phage display deep mutational scan (ProP-PD DMS): M13 P8 16-mer library selected against immobilised GST-tagged bait for four days (rounds), NGS of the eluted pools per day and pseudo-replica
Details: with TLN1 PTB (TLN1 Phosphotyrosine-binding (PTB) domain, residues 309-401); bait immobilised on MaxiSorp plates (10 µg), library pre-cleared on GST, 2 h binding at 4 °C, five washes; one round per day, days 1-4; value from days 2 and 3; keep out of graded; scale: average fractional NGS count over selection days 2 and 3

Screen value: each site, then its substitutions
chain 1 S7: N 3.76e-05; W 0.000136; H 0.00017; G 6.31e-05; M 0.000552; Y 0.000136; I 0.00143; D 8.2e-05; K 0.000214; L 0.00013; R 0.000434; P 0; E 6.81e-05; V 6.47e-05; T 0.000136
chain 1 D4: E 2.74e-05; T 0.000121; L 0.000325; F 0.00015; M 2.74e-05; P 7.86e-05; Q 0.000121; N 3.05e-05; S 0.000264; H 0.000241; V 5.15e-05; W 8.26e-05; A 0.000109; G 0.000716; R 0.000156; I 7.24e-05
chain 1 S16: M 0.000225; F 0.000114; R 0.000132; W 3.45e-05; E 0.000308; N 0.000165; H 0.00034; Q 5.76e-05; G 0.00097; V 0.000729; P 0.000199; L 0.000143; Y 0.000212; A 0.000894; I 0.00119; T 0.000518
chain 1 T3: G 9.69e-05; V 4.5e-05; A 8.91e-05; Q 0.000354; H 0.000204; N 8.2e-05; I 5.15e-05; S 0.00018; P 0.000173; M 2.4e-05; L 0.00116; Y 0.000733; R 0.000107; W 0.000436; D 5.93e-05
chain 1 P2: N 0.000183; T 0.000173; H 2.4e-05; W 0.000111; S 0.000281; F 2.4e-05; L 0.000825; Y 6.83e-05; Q 7.98e-05; R 5.46e-05; D 0.000759; V 0.000569; E 0.000182; G 9.49e-05; A 4.1e-05
chain 1 V9: K 0.000808; D 0.000489; L 0.000573; S 0.000334; W 0.000872; H 0.000257; E 0.000929; M 0.00044; N 0.00995; R 0.000353; F 0.000141; A 0.000113; Y 0.000288; Q 0.000257; I 5.76e-05; T 0.000147; G 0.000185
chain 1 P12: K 5.51e-05; E 0.00013; I 0.000302; Q 0.000705; F 7.27e-05; T 0.000179; G 0.000862; M 7.3e-05; S 0.000121; A 0.000632; L 0.000701; V 9.3e-05; W 0.000107; R 0.000314; N 0.000185; H 5.79e-05
chain 1 Y15: G 0.00057; L 3.79e-05; V 0.000186; M 0.000141; P 0.000167; T 0.000245; H 0.000526; E 0.000347; Q 0.000147; W 0.000911; S 0.000401; A 0.000656; I 0.000186; N 5.2e-05; D 0.00126; K 0.000895; F 0.00152
chain 1 H14: L 9.59e-05; T 0.00119; P 0.000231; N 3.05e-05; F 2.74e-05; G 0.00022; Y 0.000112; S 0.000388; I 4.44e-05; V 0.000348; E 0.000433; Q 0.000124; M 0.00119; A 0.000225; R 0.000159; K 0.00016; D 0.000394; W 5.14e-05
chain 1 Y10: V 0.000724; H 6.93e-05; I 0.000546; D 0.000521; N 0.000216; T 0.00117; A 0.000303; S 0.00342; P 0.000394; L 0.000358; W 8.84e-05; F 0.000662; Q 0.000754; M 0.00032; R 0.000894; K 0.00109
chain 1 L13: Q 5.12e-05; A 0.000116; M 0.000592; N 4.75e-05; D 0; Y 0.000435

Reference: article PMC12102759
